Measurements as given in patent US6962972B2, “Derivatization of proteins” (Lipoxen Technologies Limited, priority 2000, dated 2005).
Values belong to the molecule of their own block, whether it stands above or below them.

Legend:
[1] = Hanes Woolf plot at different concentrations of hydrogen peroxide (Km); format: biochemical; conditions: substrate hydrogen peroxide, read-out: Km (substrate concentration at which the reaction rate is half of its maximal value)
Excerpt: (§1) Catalase is a tetrameric haemprotein that catalyses the degradation of hydrogen peroxide to oxygen and water. The reaction can be used to determine enzyme activity. The reaction is a first order reaction, whereby the amount of peroxide substrate decomposed is directly proportional to the concentration of both substrate and enzyme. Provided the concentration of substrate is constant between experiments, any difference in decomposition rate will therefore be a function of enzyme activity present. In the present examples, the drop in absorbance hydrogen peroxide at […] from 0.450 to 0.400, corresponding to the decomposition of 3.45 μ moles of hydrogen peroxide in a cuvette having a reaction volume of 3 ml, is determined.
Native catalase, catalase derivitised using 1×10^−3M SDS, for a reaction period of 48 hours, and catalase derivatised using the same reaction time but in the absence of SDS, were compared at different concentrations of hydrogen peroxide to form Hanes Woolf plot.

[2] = Catalase determination (enzyme activity: time for hydrogen peroxide absorbance to drop from 0.450 to 0.400); format: biochemical; conditions: for Time for Δ Ab: absorbance drop 0.45 to 0.40
Excerpt: as §1
The derivatised catalase compounds were also tested against native catalase for their enzyme activity. The results for catalase alone in FIG. 3 show the effect of subjecting catalase to the reaction conditions but without the addition of activated colominic acid. […] The […] is greater when the polysialylation takes place in the presence of SDS.
The derivatised catalase products were assessed for their catalase activity using the general test described above. The times taken for the enzymes to reduce the absorbance from 0.45 to 0.40 are shown in table 1 as compared to native catalase.

Time for Δ Ab ([2]; Concentration SDS 0 %): 4 min
B1: native catalase: tetrameric haemprotein enzyme from Sigma, used as model protein, underivatised (protein, UniProt P00432 2-527, looked up)
Catalase: ADNRDPASDQMKHWKEQRAAQKPDVLTTGGGNPVGDKLNSLTVGPRGPLLVQDVVFTDEMAHFDRERIPERVVHAKGAGAFGYFEVTHDITRYSKAKVFEHIGKRTPIAVRFSTVAGESGSADTVRDPRGFAVKFYTEDGNWDLVGNNTPIFFIRDALLFPSFIHSQKRNPQTHLKDPDMVWDFWSLRPESLHQVSFLFSDRGIPDGHRHMNGYGSHTFKLVNANGEAVYCKFHYKTDQGIKNLSVEDAARLAHEDPDYGLRDLFNAIATGNYPSWTLYIQVMTFSEAEIFPFNPFDLTKVWPHGDYPLIPVGKLVLNRNPVNYFAEVEQLAFDPSNMPPGIEPSPDKMLQGRLFAYPDTHRHRLGPNYLQIPVNCPYRARVANYQRDGPMCMMDNQGGAPNYYPNSFSAPEHQPSALEHRTHFSGDVQRFNSANDDNVTQVRTFYLKVLNEEQRKRLCENIAGHLKDAQLFIQKKAVKNFSDVHPEYGSRIQALLDKYNEEKPKNAVHTYVQHGSHLSAREKANL
Km [1]: 84 mM | enzyme activity (FIG. 3) ([2]; after the derivatisation reaction conditions, up to 48 hours at 35 to 40° C.): catalase activity is lost under those conditions

Time for Δ Ab ([2]; SDS 0.01 % in derivatisation, 48 hours): 13 min | Time for Δ Ab ([2]; SDS 0.02 % in derivatisation, 48 hours): 21 min | Time for Δ Ab ([2]; SDS 0.029 % (1×10^−3M) in derivatisation, 48 hours): 44 min
B2: derivatised catalase: catalase derivatised with activated colominic acid for 48 hours in the presence of SDS at 0.01, 0.02 or 0.029 % by weight (conjugate, UniProt P00432 2-527, looked up)
Catalase: B1 Catalase
modifications: colominic acid conjugate
